Experiments:
[1] = Acute toxicity after intraperitoneal injection in mice; format: in vivo, mice (B6/SJL); conditions: 1-50 μg rX-DING-CD4^pep or 50 μg nX-DING-CD4, 7 days
Protocol: In the animal tests, eight-week old wild-type mice (B6/SJL) with both genders in each test group were injected intraperitoneally with 1-50 μg of rX-DING-CD4^pep or 50 μg nX-DING-CD4. The nX-DING-CD4 refers to the native form of X-DING-CD4 protein that was purified through IXC chromatography from the extracellular compartment of HIV-1 resistant T-cells. The rX-DING-CD4^pep refers to therapeutic X-DING-CD4 peptide that was expressed in E. coli and purified through Ni-affinity column. Toxicity was assessed by obvious symptoms including diarrhea, ruffled fur, abnormal gait, or loss of more than 10% weight. Animals were weighted before injection and then observed every hour for the first 10 hours after injection; then animals were weighted on 1, 3, 4 and 7 days after X-DING-CD4 administration. […] In its highest administered dose (50 μg—corresponding to 2 μg/G) we exceeded therapeutic dose blocking 95% of HIV promoter activity (by RSA assays) and 90% virus replication (by MAGI assays) (See FIGS. 2 & 3 in Example 2).

X-DING-CD4 mRNA = experiment: Induction of X-DING-CD4 mRNA expression in 1G5 cells (qRT-PCR); format: cell-based; conditions: 6 hours, 200 ng/ml
Protocol: The sX-DING-CD4 may be released from the macropinosome to endoplasmic reticulum (ER) and cause induction of IFNα, which in turn induces the expression of X-DING-CD4 mRNA and endogenous X-DING-CD4 protein (step 2). The induction of X-DING-CD4 mRNA by sX-DING-CD4 was tested in 1G5 cells. Briefly, three groups of 1G5 cells were treated for 6 hours with NL4-3 HIV-1 at MOI of 0.1, 200 ng/ml native X-DING-CD4 protein, and 1-126 rX-DING-CD4 peptide (i.e., rX-DING-CD4^pep), respectively. […] The eX-DING-CD4, derived from the newly synthesized X-DING-CD4, binds CN and is transported into the nucleus where it blocks LTR transcription (steps 2-7).
Two peptide fragments from the N-terminal region of X-DING-CD4 were synthesized and their activities in inducing IFN-α and X-DING-CD4 mRNA expressions were determined by qRT-PCR. The concentration of proteins used in the assays was 200 ng/ml except for the combination of XD-1 and XD-4 where we used 100 ng/ml of each peptide. The 1-126 rX-DING-CD4 and peptide C3 p16 served as positive and negative controls, respectively. The C3 Peptide P16 was derived from the C3d component of serum complement. C3 Peptide P16 regulates B cells, but not T cells, through interacting with the gp140 C3d receptor (CR2).

[2] = tested on: EcoHIV (ecotropic HIV-1 EcoNDK); experiment: EcoHIV mouse model of HIV infection, Tat and Vif mRNA by qRT-PCR; format: in vivo, C57BL mice; conditions: two intraperitoneal doses of 20 μg
Text: The mouse model of HIV infection is well-known by persons skilled in the art and is widely used to study therapeutic activities of various pharmaceutical agents. It was generated by using chimeric HIV (EcoHIV), which is a modified HIV that can infect mouse T cells and macrophages and can establish persistent infection of immunocompetent mice after intravenous or intraperitoneal exposure (Potash et al., 2005). The EcoHIV infection mouse model reproduces many characteristics of HIV-1 infection in humans such as virus targeting to lymphocytes and macrophages, induction of antiviral immune responses, neuroinvasiveness, and elevation of expression of inflammatory and antiviral factors in the brain (Potash et al., 2005). […]
In this example, we started with three groups of C57BL mice (groups I, II and III), each group having three mice. […] The amount of EcoHIV-1 virus load was assessed by determining the messenger RNA (mRNA) levels of HIV-Tat and Vif genes by quantitative RT-PCR (qRT-PCR). The amount of HIV-1 Gag DNA in the each sample, which was also determined by qRT-PCR, was used as a quantitative control for the HIV-Tat and Vif mRNA levels. […]

NL4-3 HIV-1 isolate = experiment: MAGI assay of HIV-1 replication in MAGI-CCR-5 cells; format: cell-based; conditions: MAGI-CCR-5 cells, NL4-3 HIV-1
Protocol: The antiviral activity of rX-DING-CD4^pep was tested by MAGI assay. […] Subsequently, cells were exposed to rX-DING-CD4^pep treatment in the presence of DMEM supplemented with 5% fetal bovine serum, antibiotics, glutamate and […] DEAE dextran. […] Replication of virus was evaluated forty eight hours later after fixation of cells with 1% formaldehyde and 0.2% glutaraldehyde in PBS. Expression of β-galactosidase was visualized by 50 min exposure to X-GAL (5-bromo-4-chloro-3-indolyl-β-D-galactopyranoside), 0.4 mg/ml 2 mM MgCl2, 4 mM potassium ferricyanide at 37° C. After enumeration of the infected (blue) cells, all cells were lysed and subjected to the protein assay (Bio-Rad). All data were adjusted by total protein concentration and anti-viral activity was calculated as percent inhibition. The infected untreated and uninfected cells served as (+) and (−) controls to calculate 100% virus infectivity. The inhibition values for HIV-1 replication were calculated based on the formula [(R1−R0)×100/Z]-100; where R1 is the value obtained from cells infected by HIV-1 and treated with specific dilution of X-DING-CD4^pep and R^0 is the basal value obtained from the uninfected and untreated cells; Z is the absolute HIV-1 replication value calculated as Z═Rmax−R0, where Rmax is the value representing 100% of HIV-1 replication in X-DING-CD4^pep untreated cells.

B1: MADINGGGATLPQPLYQTSGVLTAGFAPYIGVGSGKGKLAFLNNDYSQFGTGTKNVHWAGSDSKLTSTELSTYASTKQAAWGKLIQVPSVATSVAIPFNKAGSNAVDLSVDQLCGVFSGRITTWNQ (protein, listed as Homo sapiens)
chain: MADINGGGATLPQPLYQTSGVLTAGFAPYIGVGSGKGKLAFLNNDYSQFGTGTKNVHWAGSDSKLTSTELSTYASTKQAAWGKLIQVPSVATSVAIPFNKAGSNAVDLSVDQLCGVFSGRITTWNQ
- obvious symptoms of toxicity (diarrhea, ruffled fur, abnormal gait) [1]: Neither of rX-DING-CD4^pep treatment nor nX-DING-CD4 treatment caused any obvious symptoms
- expression of X-DING-CD4 mRNA (X-DING-CD4 mRNA): induced expression of X-DING-CD4 mRNA
- expression of EcoHIV Tat mRNA and vif mRNA versus saline or heat inactivated peptide ([2]; 48 hours): decreased expression
- transcription of EcoHIV blocked ([2]; two days after infection): 75%
- IC50 (NL4-3 HIV-1 isolate): 18.9 nM
- IC80 (NL4-3 HIV-1 isolate): 151 nM
